Ends that are not written are not given here.
Key:
[1] = molecular target: GST-TOPBP1(BRCT0-2 1-290) K250E (human, UniProt Q92547 1-290, K250E); assay: FP
[2] = molecular target: T1, GST-TOPBP1(BRCT0-2 1-290) WT (human, UniProt Q92547 1-290); assay: FP
T1 chain: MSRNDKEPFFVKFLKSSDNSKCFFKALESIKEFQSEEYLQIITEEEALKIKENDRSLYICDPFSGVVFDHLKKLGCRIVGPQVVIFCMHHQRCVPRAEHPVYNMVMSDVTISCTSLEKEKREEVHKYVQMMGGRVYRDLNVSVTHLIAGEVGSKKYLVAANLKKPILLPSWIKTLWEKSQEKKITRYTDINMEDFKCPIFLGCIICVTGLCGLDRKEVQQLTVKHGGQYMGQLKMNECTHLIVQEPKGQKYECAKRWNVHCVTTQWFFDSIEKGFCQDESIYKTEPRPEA

Binder fluorescein-GYGTSWLVPATPLASRSR (also: phosphothreonine at Thr1260, position in chain not mapped) [Flu-SLX4_pT1260] has a Kd [1] of 3.55 µM and a Kd [2] of 3.29 µM.

Reference: paper PMC12661054 (2025)
